Measured values published in patent publication US6482410B1, “Cytotactin derivatives that stimulate attachment and neurite outgrowth, and methods of making same” (The Scripps Research Institute, priority 1994, dated 2002).
“Also recorded” adds a separate entry of the source.

B1: CTfn6: CT:GST fusion protein, fibronectin type III repeat VI, residues 1318-1398 of SEQ ID NO 4 (protein)
chain: VVGSPKGISFSDITENSARVSWTPPRSRVDSYRVSYVPITGGTPNVVTVDGSKTRTKLVKLVPGVDYNVNIISVKGFEESE
modifications: left off: a dimerising Fc or GST
B2: CTfn3: CT:GST fusion protein, fibronectin type III repeat III, residues 774-864 of SEQ ID NO 4 (protein)
chain: LDAPSQIEAKDVTDTTALITWSKPLAEIEGIELTYGPKDVPGDRTTIDLSEDENQYSIGNLRPHTEYEYEVTLISRRGDMESDPAKEVFVT
modifications: left off: a dimerising Fc or GST
B3: CTfg: CT:GST fusion protein, entire fibrinogen domain, residues 1570-1810 of SEQ ID NO 4 (protein)
chain: SMRSKMIQTVFTTTGLLYPYPKDCSQALLNGEVTSGLYTIYLNGDRTQPLQVFCDMAEDGGGWIVFLRRQNGKEDFYRNWKNYVAGFGDPKDEFWIGLENLHKISSQGQYELRVDLRDRGETAYAVYDKFSVGDAKTRYRLRVDGYSGTAGDSMTYHNGRSFSTFDKDNDSAITNCALSYKGAFWYKNCHRVNLMGRYGDNNHSQGVNWFHWKGHEYSIQFAEMKLRPSSFRNLEGRRKRA
modifications: left off: a dimerising Fc or GST

Tested on: chicken fibroblast cell line SL29
Assay: Cell attachment assay, fibroblasts on protein-coated solid support
Type: cell-based
Details: for SL29 fibroblast attachment to coated substrate (words): CT coated at 20 μg/ml, binding fragments at 0.75 μM, non-binding at three times that, 1 hour; for spreading of SL29 cells on substrate: coated at 0.75 μM
Method: In the cell attachment assays, a single cell suspension was allowed to settle for a fixed period of time onto a solid support that has been coated with the different CT-derived proteins to be tested for cell attachment (Friedlander, et al., J. Cell Biol. 107: 2329-2340 (1988)). After removing the unbound and loosely bound cells by washing, the attachment and morphology of those cells remaining on the dish were analyzed.
Solid supports, consisting of a circular array of CT or CT:GST fusion proteins bound to a dish, were prepared as follows for the cell attachment assay.
For the initial study, non tissue-culture treated polystyrene plates (Falcon 1008) were spotted with 2 μl of a 0.5 to 1.5 μM solution of CT in PBS for 30 minutes to coat a specific area on the dish with CT. CT was isolated from chicken brain or from fibroblast culture supernatant as described in Crossin, PNAS 88: 11403-11407 (1991) and Hoffman et al., J. Cell Biol. 106: 519-532 (1988). CT was placed in a circular array near the center of the dish and incubated at 37° C. for 30 minutes. After CT had adsorbed to the dish, the central portion of the dish was washed once with 250 μl of 20% (w/v) BSA in PBS. Non-specific binding sites on the dish were then blocked with 250 μl of 20% (w/v) BSA in PBS by incubation for 2 to 3 hours at room temperature.
For the subsequent study with the CT:GST fusion proteins, non tissue-culture treated polystyrene plates (Falcon 1008) were spotted with 2 μl of a 0.5 to 1.5 μM solution of CT:GST fusion protein in PBS as prepared in Example 5.A.2 or GST in PBS for 30 minutes to coat a specific area on the dish with CT:GST fusion protein or GST. The proteins to be tested were placed in a circular array near the center of the dish and incubated at 37° C. for 30 minutes. After the proteins adsorbed to the dish, the central portion of the dish was washed once with 250 μl of 20% (w/v) BSA in PBS. Non-specific binding sites on the dish were then blocked with 250 μl of 20% (w/v) BSA in PBS by incubation for 2 to 3 hours at room temperature.
The chicken fibroblast cell line SL29 (ATCC CRL 1590) was grown to confluence in Dulbecco's Minimum Essential Medium (DMEM; Gibco-BRL, Gaithersburg, Mass.) with 10% (v/v) fetal calf serum (FCS; Gibco-BRL) with penicillin and streptomycin. The cells were passaged the night prior to the assay and seeded at a density of 1:2. Cells were harvested in calcium, magnesium-free Hank's balanced salt solution (CMF-HBSS, Gibco-BRL) with 20 mM Hepes buffer and 5 mM EDTA. Harvested cells were washed in attachment buffer (CMF-HBSS with 10 mM Hepes, 1 mM CaCl2, 1 mM MgCl2, 0.1 mM MnCl2, and 2% (w/v) bovine serum albumin (BSA)) three times. The number of cells was quantitated by counting the cells in a hemocytometer. The cells were resuspended in attachment buffer to a density of 6×10^5 cells/ml.
Chicken fibroblasts, DRG, and solid supports (dishes) coated with CT for use in the cell attachment assays were prepared as described in Examples 5.A.2-4, respectively. The chicken fibroblasts and DRG at a density of 6×10^5 cells/ml were added to the prepared dishes and incubated at 37° C. in 5% CO2 for 1 hour. The dishes were then washed three times in PBS with gentle swirling to remove unattached cells, fixed in 1% glutaraldehyde in PBS, and viewed by phase contrast microscopy. The number of bound cells was determined using a 10× objective with an eyepiece reticle. The number of cells was determined in four fields for each fusion protein dot as the number of cells bound per […]. CT was tested in triplicate. The number of cells bound for CT was expressed as the average of the twelve measurements±standard deviation […].
CT, coated at a concentration of 20 μg/ml, was used as a solid support for SL29 fibroblast attachment. […] Fragments of CT were generated using the pGEX fusion protein system, as described in Example 1. The cell attachment assay was performed essentially as described above for the cell attachment assay to intact CT. […]

Molecule | SL29 fibroblast attachment to coated substrate (words) | SL29 fibroblast attachment to coated substrate (words) (listed as Ctfn6) | SL29 fibroblast attachment to coated substrate (words) (listed as sixth repeat) | spreading of SL29 cells on substrate
B1 | robust SL29 cell attachment was supported; also recorded: supports both fibroblast and neuronal cell attachment | support fibroblast and neuronal cell attachment | fibroblast attachment activity was localized to the sixth repeat | little or no spreading
B2 | robust SL29 cell attachment was supported; also recorded: readily attached; also recorded: attached well | – | – | exhibited cell spreading; also recorded: spreading of cells was observed
B3 | robust SL29 cell attachment was supported; also recorded: readily attached; also recorded: attached well | – | – | little or no spreading
